Measurements taken from patent publication US20230303685A1 (ELECTRA THERAPEUTICS, published 2023).
Each block holds one binder with its values, some of them ahead of it.

Key:
[1] = biological target: T1, Human SIRPβ1/DAP12 CHO; experiment: flow cytometry, stably transfected CHO cells, antibody titrated, labelled anti-human IgG, MFI
T1 construct: also called human SIRPβ1 on CHO cells co-transfected with DAP12; copies: 1 + 2
Experimental: (§1) Selected antibodies were tested for binding to stably transfected human SIRPα, SIRPβ1 (co-transfected with DAP12), or SIRPγ Chinese hamster ovary (CHO) cells via flow cytometry. A titration of SIRP antibodies was added to the cells and detected using a fluorescently labelled secondary antibody. Graph depicts the median fluorescence intensity (MFI) at each concentration.

[2] = biological target: T2, Human SIRPγ CHO; experiment: as above
T2 construct: also called human SIRPγ on CHO cells
T2 chain: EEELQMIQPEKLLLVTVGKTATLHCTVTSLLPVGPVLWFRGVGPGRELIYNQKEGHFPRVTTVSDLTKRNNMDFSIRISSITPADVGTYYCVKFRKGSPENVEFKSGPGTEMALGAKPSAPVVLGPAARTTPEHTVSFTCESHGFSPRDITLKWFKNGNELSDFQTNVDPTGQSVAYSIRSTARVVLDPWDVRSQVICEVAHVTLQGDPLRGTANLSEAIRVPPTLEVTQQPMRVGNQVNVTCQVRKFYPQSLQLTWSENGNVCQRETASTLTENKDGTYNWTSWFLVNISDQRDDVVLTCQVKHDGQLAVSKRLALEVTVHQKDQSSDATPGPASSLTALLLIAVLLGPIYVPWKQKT
Experimental: as §1

[3] = biological target: T3, human SIRPα V1 extracellular domain, monomeric (human, UniProt P78324 31-373); experiment: SPR (Biacore); antibody captured by anti-IgG on chip, monomeric SIRPα extracellular domain as analyte, 1:1 model
T3 construct: also called hSIRPα V1
Experimental: (§2) Selected antibodies were tested for their affinities to two hSIRPα variants (V1 and V2), and to cynomolgus monkey (herein referred to as “cyno”) SIRPα. The affinities of these SIRP antibodies were determined using surface plasmon resonance. The SIRP antibodies were flowed onto a chip and captured by an anti-mouse IgG or an anti-human IgG covalently coupled to the surface of the chip. A three-point titration of the extracellular binding domain of hSIRPα was performed per the manufacturer's recommended protocols.

[4] = biological target: T4, human SIRPα V2 extracellular domain, monomeric (human, UniProt P78324 31-370); experiment: as above
T4 construct: also called hSIRPα V2
Experimental: as §2

[5] = biological target: T5, cynomolgus monkey SIRPα extracellular domain, monomeric (cynomolgus monkey, UniProt A0A2K5VYQ9 31-372); experiment: as above
T5 construct: extracellular domain; also called Cyno SIRPα
Experimental: as §2

[6] = biological target: T6, Human SIRPγ; experiment: ELISA, extracellular domain coated at 1 µg/mL, purified antibody titrated, anti-human IgG, chemiluminescence
T6 construct: also called human SIRPγ extracellular domain, plate-coated
T6 chain: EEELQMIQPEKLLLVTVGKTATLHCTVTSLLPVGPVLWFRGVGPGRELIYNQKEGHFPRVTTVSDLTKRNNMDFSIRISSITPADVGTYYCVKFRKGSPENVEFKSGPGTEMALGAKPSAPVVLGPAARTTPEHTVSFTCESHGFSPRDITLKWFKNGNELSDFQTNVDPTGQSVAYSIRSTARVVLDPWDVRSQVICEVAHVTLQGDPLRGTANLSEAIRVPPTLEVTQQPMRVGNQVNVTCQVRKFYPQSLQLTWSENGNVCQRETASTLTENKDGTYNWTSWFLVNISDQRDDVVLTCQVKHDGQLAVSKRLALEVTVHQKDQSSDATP
Experimental: (§3) Select SIRP antibodies were purified by Protein G from hybridoma supernatants and analyzed in a titration via ELISA. Briefly, 1 μg/mL of extracellular domain SIRPα was coated onto high protein-binding plates and blocked. Purified antibodies were added in a titration to the coated plates. The antibodies were detected by an anti-rat IgG antibody and a chemiluminescent substrate.
FIGS. 3A-3C show binding curves of SIRP antibodies and two isotype controls with human Fc to human SIRPα V1, human SIRPβ1, human SIRPγ and cynomolgus monkey SIRPα by ELISA. […] Isotype control 1 was an unrelated human IgG1 antibody with irrelevant CDRs. Isotype control 2 was the same as isotype control 1 but contained the same amino acid substitutions in the Fc region as some of the selected SIRP antibodies for increased FcγR binding (referring to Table 11). DNA was transiently transfected into CHO cells for 7 days. Antibodies were purified by Protein A from cell supernatants and analyzed in a titration via ELISA as previously described in FIGS. 2A-2B using an anti-human IgG antibody as the detection antibody.

[7] = biological target: T7, Human SIRPβ1; experiment: ELISA, extracellular domain coated at 2 µg/mL, purified antibody titrated, anti-human IgG, chemiluminescence
T7 construct: also called human SIRPβ1 extracellular domain, plate-coated
T7 chain: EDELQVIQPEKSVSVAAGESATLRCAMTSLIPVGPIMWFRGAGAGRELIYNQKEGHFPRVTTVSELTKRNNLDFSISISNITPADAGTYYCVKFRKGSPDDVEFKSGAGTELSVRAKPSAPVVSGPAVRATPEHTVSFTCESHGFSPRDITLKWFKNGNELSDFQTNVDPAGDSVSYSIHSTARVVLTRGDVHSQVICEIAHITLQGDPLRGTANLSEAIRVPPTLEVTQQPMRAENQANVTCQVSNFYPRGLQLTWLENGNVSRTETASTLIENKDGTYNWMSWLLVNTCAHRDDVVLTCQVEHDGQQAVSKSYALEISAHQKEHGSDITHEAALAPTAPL

[8] = biological target: T8, Cynomolgus Monkey SIRPβ1 (Macaca fascicularis); experiment: as above
T8 construct: extracellular domain; also called cyno SIRPβ1 extracellular domain, plate-coated

[9] = biological target: T5, cynomolgus monkey SIRPα extracellular …; experiment: as above
[10] = biological target: T6, Human SIRPγ; experiment: as above
[11] = biological target: T9, Human SIRPγ conjugated to an Fc region (human); experiment: BLI blocking; 200 nM antibody pre-incubated with 20 nM SIRPγ-Fc, binding to immobilised CD47-His (competitor), % of response of SIRPγ-Fc alone
T9 construct: also called SIRPγ-Fc; SIRP-Fc; not shown: Fc region

[12] = biological target: T3, human SIRPα V1 extracellular domain, …; experiment: ELISA, extracellular domain coated at 2 µg/mL, purified antibody titrated, anti-human IgG, chemiluminescence
[13] = biological target: T10, Cynomolgus Monkey SIRPγ (Macaca fascicularis); experiment: as above
T10 construct: extracellular domain; also called cyno SIRPγ extracellular domain, plate-coated

[14] = biological target: T11, human SIRPα V1-His monomer (human, UniProt P78324 31-373, limits assumed); experiment: BLI (Octet); antibody on anti-mouse IgG capture tip, SIRP-His monomer at 100, 33.3, 11.1 nM, 1:1 fit, mean KD
T11 construct: 'SIRP-His monomer protein' of the Octet assay; also called SIRP-His; not shown: His tag
Experimental: (§4) Select SIRP antibodies were tested for their affinities to human SIRPα, SIRPβ1, and SIRPγ using a biolayer interferometry (BLI) Octet system (Pall ForteBio). Each SIRP antibody with rat or mouse Fc was immobilized on a biosensor tip by an anti-mouse IgG capture (AMC). Antibodies with human Fc were digested with gingipain K enzyme to yield monomeric F(ab′), biotinylated, then coated onto streptavidin biosensors. […] The biosensors were then exposed to wash buffer to measure off-rate kinetics. The resulting kinetic data were analyzed and fitted using a 1:1 binding model with kₒₙ and kdis fitted separately at each SIRP-His protein concentration. KD affinities were calculated as kdis to kₒₙ ratio at each concentration of SIRP-His and averaged.

[15] = biological target: T12, human SIRPγ-His monomer (human); experiment: as above
T12 construct: 'SIRP-His monomer protein' of the Octet assay; also called SIRP-His; not shown: His tag
Experimental: as §4

[16] = biological target: T1, Human SIRPβ1/DAP12 CHO; experiment: flow cytometry, stably transfected CHO cells, antibody titrated, labelled anti-rat or anti-mouse IgG, MFI
Experimental: as §1

[17] = biological target: T2, Human SIRPγ CHO; experiment: as above
Experimental: as §1

[18] = biological target: T3, human SIRPα V1 extracellular domain, …; experiment: ELISA, extracellular domain coated at 1 µg/mL, purified antibody titrated, anti-rat IgG, chemiluminescence
Experimental: as §3

[19] = biological target: T10, Cynomolgus Monkey SIRPγ; experiment: ELISA, extracellular domain coated at 2 µg/mL, purified antibody titrated, anti-rat or anti-mouse IgG, chemiluminescence
Experimental: as §3, with “2” for “1”, “of each of the SIRPs” for “SIRPα”, “IgG or an anti-mouse IgG” for “IgG”

[20] = biological target: T6, Human SIRPγ; experiment: as above
Experimental: as §3, with “2” for “1”, “of each of the SIRPs” for “SIRPα”, “IgG or an anti-mouse IgG” for “IgG”

[21] = biological target: T3, human SIRPα V1 extracellular domain, …; experiment: as above
Experimental: as §3, with “2” for “1”, “of each of the SIRPs” for “SIRPα”, “IgG or an anti-mouse IgG” for “IgG”

[22] = biological target: T7, Human SIRPβ1; experiment: ELISA, extracellular domain coated at 2 µg/mL, undiluted hybridoma supernatant, anti-rat or anti-mouse IgG, chemiluminescence
Experimental: Briefly, 2 μg/mL of the extracellular domain of each of the SIRPs was coated onto high protein-binding plates and blocked. Supernatants were added undiluted to coated plates. The antibodies were detected by anti-rat or anti-mouse IgG antibodies and a chemiluminescent substrate. […] The data depict the relative luminescence units read by a plate-reader capable of detecting chemiluminescence.

T1 sequence (DAP12, as listed by the source limits assumed): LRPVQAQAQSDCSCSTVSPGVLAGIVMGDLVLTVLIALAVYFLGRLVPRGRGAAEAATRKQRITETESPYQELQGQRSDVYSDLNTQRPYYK

- EC50 (read off the curve) [1]: ~0.4 µg/mL
- EC50 (read off the curve) [2]: ~0.3 µg/mL
- Kd [3]: 311 nM
- Kd [4]: 373 nM
- Kd [5]: 361 nM
- EC50 (read off the curve) [6]: ~0.04 µg/mL
- EC50 (read off the curve) [7]: ~0.04 µg/mL
- EC50 (read off the curve) [8]: ~0.04 µg/mL
- EC50 (read off the curve) [9]: ~0.04 µg/mL
- EC50 (read off the curve) [10]: ~0.03 µg/mL
- SIRPγ-CD47 Response (%) [11]: 144%
B1: Antibody 28 (antibody, V domains shown)
VH: QVQLQESGPGLVKPSGTLSLTCAVSGGSISSSNWWSWVRQPPGKGLEWIGEIYHSGSTNYNPSLKSRVTISVDKSKNQFSLKLSSVTAADTAVYYCARRGIWFGVGPWGQGTLVTVSS
VL: DIVMTQSPLSLPVTPGEPASISCRSSQSLLHGNGFNYLDWYLQKPGQSPQLLIYLGSNRASGVPDRFTGSGSGTDFTLKISRVEAEDVGVYYCMQGLQTPRTFGQGTKVEIK

- EC50 (read off the curve) [1]: ~0.3 µg/mL
- EC50 (read off the curve) [2]: ~0.2 µg/mL
- EC50 (read off the curve) [7]: ~0.03 µg/mL
- EC50 (read off the curve) [12]: ~0.03 µg/mL
- EC50 (read off the curve) [13]: ~0.03 µg/mL
- EC50 (read off the curve) [10]: ~0.02 µg/mL
B2: Antibody 32 (antibody, V domains shown)
VH: QVQLQESGPGLVKPSGTLSLTCAVSGGSISSSNWWSWVRQPPGKGLEWIGEIYHSGNTNYNPSLKSRVTISVDKSKNQFSLKLSSVTAADTAVYYCAREGIEGYYFYYGMDVWGQGTTVTVSS
VL: DIQLTQSPSFLSASVGDRVTITCRASQGISGYLDWYQQKPGKAPKLLIYAASTLQRGVPSRFSGSGSGTDFNLTISSLQPEDFATYYCQQFTSDLITFGQGTRLEIK
notes: same variable regions as Antibodies 3 and 24

- Kd [14]: 46.1 nM
- Kd [15]: 24.1 nM
- binding result [16]: binds
- EC50 (read off the curve) [17]: ~0.1 µg/mL
- EC50 (read off the curve) [18]: ~0.05 µg/mL
- EC50 (read off the curve) [19]: ~0.07 µg/mL
- EC50 (read off the curve) [20]: ~0.05 µg/mL
- EC50 (read off the curve) [21]: ~0.06 µg/mL
- binding result [22]: binds
- SIRPγ-CD47 Response (%) [11]: -6.94%
B3: Antibody 4 (antibody, V domains shown)
VH: QVQLQESGPGLLKPSETLSLTCAVSDYSISSGYYWGWIRQPPGKGLEWIGSIYHSGNTYYNPSLKSRVTILVDTSKNQFSLKLSSVTAADTAVYYCARDKCSTTTCSFDYWGQGTLVTVSS
VL: DIQMTQSPSSLSASVGDRVTITCQASQDFSNYLNWYQQKPGKAPKLLIYAASNLETGVPSRFSGSGSGTDFTFTISSLQPEDIAVYYCQQYDNLPYTFGQGTKLEIK
notes: Human variable region, rat IgG2b Fc; from hybridoma
